From patent US20090202547A1 (FIBRON, published 2009)

Experiments:
[1] = biological target: T1, FGFR3 (wild type) on cells (human, UniProt P22607 23-806); assay: FACS
T1 construct: also called FDCP-FR3; FDCP-FGFR3

FR3exFc [2] = biological target: T2, FR3exFc (human); assay: BIACORE
T2 construct: also called FGFR3/Fc; FR3/Fc
Method: (§1) The affinity measurements were performed by BIACORE® analysis according to the standard procedure recommended by the supplier (Pharmacia). The anti-Fc antibody was coupled via the EDC/NHS chemistry to the chip and subsequently FGFR3 was captured. The Fabs of the invention were then bound to this surface.

[3] = biological target: T1, FGFR3 (wild type) on cells; assay: cell-based or functional assay
[4] = biological target: T1, FGFR3 (wild type) on cells; assay: cell-based or functional assay; remark: listed apart in the source
[5] = biological target: T1, FGFR3 (wild type) on cells; assay: cell-based or functional assay; remark: listed apart in the source
[6] = biological target: T1, FGFR3 (wild type) on cells; assay: indirect FACS-Scatchard
FR3exFc [7] = biological target: T2, FR3exFc; assay: BIACORE, FGFR3 captured on an anti-Fc chip
Method: as §1

FR3exFc [8] = biological target: T2, FR3exFc; assay: BIACORE, FGFR3 captured on an anti-Fc chip; remark: listed apart in the source
Method: as §1

FR3exFc [9] = biological target: T2, FR3exFc; assay: BIAcore; number in parentheses taken as the monomeric Fab; monomeric Fab, not miniantibody
[10] = biological target: T1, FGFR3 (wild type) on cells; assay: indirect FACS-Scatchard; indirect FACS-Scatchard, Table 5 (Table 1C gives 1.1 nM)
hFR3^D2Fc = biological target: T3, hFR3^D2Fc (human, UniProt P22607 143-250); assay: ELISA, Fc fusion anchored on an anti-human Fc coated plate, bound Fab detected with HRP anti-human Fab
T3 construct: Only domain 2 of the entry stood in the assay; also called product of pChFR3^D2Fc; not shown: human Fc
T3 sequence: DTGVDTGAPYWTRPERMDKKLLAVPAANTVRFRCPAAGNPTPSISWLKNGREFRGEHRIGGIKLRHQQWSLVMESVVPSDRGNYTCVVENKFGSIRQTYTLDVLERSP
Description: Constructs comprising cDNAs that code for segments of the extracellular domain of FGFR3 were generated (FIG. 10). D2 comprises Ig domain 2, D2-3 comprises Ig domains 2 and 3, and D1-3 comprises Ig domains 1, 2 and 3. These constructs include pChFR3^D2Fc that codes for Ig-like domain 2 of FGFR3 and pChFR3^{D2,3}Fc that codes for domain 2 and 3, both as human Fc fusions. The corresponding chimeric proteins, as well as the control hFR3exFc (containing domains 1, 2 and 3) were anchored to an ELISA plate coated with a human Fc antibody. A panel of 8 best Fabs, MSPRO2, 11, 12, 21, 24, 26, 28 and 29, were added, and bound Fab was determined with HRP-α human Fab (FIG. 11). […] Both bind to the Ig like domain 2 while the others require domain 3 for binding. It was then tested whether or not Fabs that belong to the second group would distinguish the FGFR3IIIc isoform from the FGFRIIIb from. FDCP-FR3IIIb or FDCP-FR3IIIc cells were incubated in the presence of 1.25 ng/ml FGF9 with increasing doses of either MSPRO12 or MSPRO29. Ly6.3 was included as control. After 2 days in culture, cell proliferation was measured with the XTT reagent. Clearly, MSPRO29 (open triangle) was completely ineffective against the IIIb isoform (FIG. 12).

FR3exFc [11] = biological target: T2, FR3exFc; assay: BIAcore; number in parentheses taken as the monomeric Fab; monomeric Fab, value in parentheses of Table 1E (Tables 1C and 5 give 9 nM)

T2 sequence (chain, as listed by the source limits assumed): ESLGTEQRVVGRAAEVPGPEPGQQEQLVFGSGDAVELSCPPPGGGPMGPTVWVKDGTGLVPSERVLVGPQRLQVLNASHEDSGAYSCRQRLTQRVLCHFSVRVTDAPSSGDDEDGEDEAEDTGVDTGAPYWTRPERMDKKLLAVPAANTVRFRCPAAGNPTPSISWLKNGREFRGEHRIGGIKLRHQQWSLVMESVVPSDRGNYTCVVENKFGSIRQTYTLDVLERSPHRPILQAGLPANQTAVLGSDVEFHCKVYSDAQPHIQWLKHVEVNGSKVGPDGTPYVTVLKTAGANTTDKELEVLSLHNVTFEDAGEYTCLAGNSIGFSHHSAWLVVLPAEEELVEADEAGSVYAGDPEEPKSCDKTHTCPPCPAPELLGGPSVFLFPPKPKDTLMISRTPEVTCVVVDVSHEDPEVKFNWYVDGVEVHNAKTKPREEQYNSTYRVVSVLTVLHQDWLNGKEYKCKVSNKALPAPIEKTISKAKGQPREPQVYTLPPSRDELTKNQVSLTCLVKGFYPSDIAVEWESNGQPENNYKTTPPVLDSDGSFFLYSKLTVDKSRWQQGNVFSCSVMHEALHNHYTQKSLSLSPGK
T1 sequence (P22607 23-806 limits assumed): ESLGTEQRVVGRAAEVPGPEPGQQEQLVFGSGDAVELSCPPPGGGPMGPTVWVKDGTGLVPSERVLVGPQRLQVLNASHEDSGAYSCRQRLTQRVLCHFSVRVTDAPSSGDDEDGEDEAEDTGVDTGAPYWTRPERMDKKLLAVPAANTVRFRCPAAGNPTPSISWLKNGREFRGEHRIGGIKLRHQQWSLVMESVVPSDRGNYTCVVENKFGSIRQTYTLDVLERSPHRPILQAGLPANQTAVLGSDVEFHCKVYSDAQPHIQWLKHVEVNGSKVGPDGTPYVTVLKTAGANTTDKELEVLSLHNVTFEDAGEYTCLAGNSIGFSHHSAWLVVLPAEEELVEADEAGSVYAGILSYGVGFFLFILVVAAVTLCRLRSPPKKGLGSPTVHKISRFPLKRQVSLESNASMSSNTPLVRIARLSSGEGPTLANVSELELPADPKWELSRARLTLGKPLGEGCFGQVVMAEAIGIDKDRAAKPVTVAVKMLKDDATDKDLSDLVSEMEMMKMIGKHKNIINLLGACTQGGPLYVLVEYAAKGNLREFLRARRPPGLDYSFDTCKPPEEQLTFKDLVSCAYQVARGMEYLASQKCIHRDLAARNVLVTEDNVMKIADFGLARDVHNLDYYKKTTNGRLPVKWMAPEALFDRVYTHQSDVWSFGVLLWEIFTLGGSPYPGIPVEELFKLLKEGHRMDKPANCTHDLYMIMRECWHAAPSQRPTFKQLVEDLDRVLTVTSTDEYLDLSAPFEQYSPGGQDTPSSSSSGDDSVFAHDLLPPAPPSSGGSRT

B1: MSPRO2 (Fab, V domains shown)
VH: QVQLVQSGAEVKKPGASVKVSCKASGYTFTSYYMHWVRQAPGQGLEWMGWINPNSGGTNYAQKFQGRVTMTRDTSISTAYMELSSLRSEDTAVYYCARDFLGYEFDYWGQGTLVTVSS
VL: DIELTQPPSVSVAPGQTARISCSGDALGDKYASWYQQKPGQAPVLVIYDDSDRPSGIPERFSGSNSGNTATLTISGTQAEDEADYYCQSYDYSADYVFGGGTKLTVLG
Kd [1]: 43 nM | koff (FR3exFc [2]): 0.02 s⁻¹ | IC50 of inhibition of FDCP-FR3 proliferation with FGF9 (XTT) [3]: ~1 µg/mL | IC50 FR3 (FGF9), FDCP-FGFR3 proliferation assay [4]: 360 nM | IC50, FDCP-FGFR3 proliferation assay with FGF9, monomeric Fab (in parentheses) [5]: 360 nM | Kd [6]: 43 nM | Kd (FR3exFc [7]): 37 nM | Kd (FR3exFc [8]): 37 nM | Kd (FR3exFc [9]): 37 nM

B2: MSPRO21 (Fab, V domains shown)
VH: QVQLVQSGAEVKKPGSSVKVSCKASGGTFSSYAISWVRQAPGQGLEWMGGIIPIFGTANYAQKFQGRVTITADESTSTAYMELSSLRSEDTAVYYCARDNWFKPFSDVWGQGTLVTVSS
VL: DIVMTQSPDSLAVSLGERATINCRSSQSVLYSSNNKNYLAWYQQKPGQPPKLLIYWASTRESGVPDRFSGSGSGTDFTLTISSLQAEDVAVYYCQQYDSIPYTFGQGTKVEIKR
Kd [1]: 1.1 nM | koff (FR3exFc [2]): 0.0036 s⁻¹ | IC50 FR3 (FGF9), FDCP-FGFR3 proliferation assay [4]: 50 nM | IC50, FDCP-FGFR3 proliferation assay with FGF9, monomeric Fab (in parentheses) [5]: 50 nM | Kd (FR3exFc [7]): 9 nM | Kd (FR3exFc [8]): 9 nM | Kd [10]: 0.6 nM | binding result (hFR3^D2Fc): no binding | Kd (FR3exFc [11]): 4.1 nM
